Drawing on PMC6715699, this text covers Kd for 1 sequence.

This data set addresses T1, TRF2 (UniProt Q15554).
T1 sequence: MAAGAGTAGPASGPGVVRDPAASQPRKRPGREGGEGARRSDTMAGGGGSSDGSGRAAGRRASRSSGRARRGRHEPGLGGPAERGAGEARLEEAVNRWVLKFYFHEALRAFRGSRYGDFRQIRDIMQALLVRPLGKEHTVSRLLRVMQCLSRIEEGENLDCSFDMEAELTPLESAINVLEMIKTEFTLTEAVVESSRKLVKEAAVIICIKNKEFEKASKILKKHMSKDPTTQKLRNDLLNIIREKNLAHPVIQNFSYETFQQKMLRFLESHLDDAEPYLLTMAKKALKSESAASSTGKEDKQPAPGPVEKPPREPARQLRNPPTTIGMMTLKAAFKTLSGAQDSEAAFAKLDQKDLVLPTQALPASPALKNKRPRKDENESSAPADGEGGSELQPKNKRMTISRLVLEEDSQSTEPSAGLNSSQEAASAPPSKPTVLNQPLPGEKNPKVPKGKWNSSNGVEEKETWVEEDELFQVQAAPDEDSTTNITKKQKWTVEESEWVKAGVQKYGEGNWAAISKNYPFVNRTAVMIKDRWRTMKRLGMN
Put plainly: MST. The following applies: 50 nM labelled DNA; MST in standard MST buffer (composition and pH not given), premium-treated capillaries, Monolith NT.115; 20 min at room temperature stated for the protein ….

Sequence “TTAGGGTTAGGGTTAGGG (double strand) [TELO (TTAGGG)3]” gave a Kd of 12.2 nM.

In general, Kd refers to a measure of binding affinity in units of concentration.
